Measurements: patent US20240209076A1 (KODIAK SCIENCES, published 2024)

Target: human IL-6 (human, UniProt P05231 30-212)
Test: SPR (Biacore), supernatant antibody on Protein A chip, IL-6 flowed, 37 C
Description: Antibodies were captured on a Protein A chip (GE) by injecting 1:20 cell supernatant dilutions at 10 μL/min for 60 seconds. […] The sensor chip was regenerated by a 60 seconds injection of 10 mM Glycine pH 1.7 at the flow rate of 50 μL/min. […] For this setup, 1 μg/mL of purified antibody was injected over a Protein A chip at 10 μL/min for 25 seconds. […] The sensor chip was regenerated by a 60 seconds injection of 10 mM Glycine pH 1.7 at flow rate of 50 μL/min. Data analysis for supernatant and purified samples were performed using BIAevaluation software (GE). All sensorgrams were double reference subtracted and fit using a 1:1 Langmuir binding model.

Chain of human IL-6 (P05231 30-212 limits assumed): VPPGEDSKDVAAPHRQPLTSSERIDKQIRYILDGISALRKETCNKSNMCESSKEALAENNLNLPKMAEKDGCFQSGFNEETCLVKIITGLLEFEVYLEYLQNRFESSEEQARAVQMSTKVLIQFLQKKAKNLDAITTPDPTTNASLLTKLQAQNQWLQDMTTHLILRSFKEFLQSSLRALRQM

Row | Binder | Kd | koff | kon
1 | anti-IL-6 antibody, heavy chain T63L, G66D / light chain M32L, M50D, N52S, M88Q (antibody, human IgG1, V domains shown, Human IgG1) VH: EVQLVESGGGLVQPGGSLRLSCAASGFTFSPFAMSWVRQAPGKGLEWVAKISPGGSWTYYSDLVTDRFTFSLDTSKSTAYLQMNSLRAEDTAVYYCARQLWGYYALDIWGQGTLVTVSS VL: DIQLTQSPSSLSASVGDRVTITCSASISVSYLYWYQQKPGKAPKLLIYDDSSLASGVPSRFSGSGSGTDFTLTISSLQPEDFATYYCQQWSGYPYTFGQGTKVEIK | 0.283 nM | 0.000454 s⁻¹ | 1.6e+06 M⁻¹ s⁻¹
2 | anti-IL-6 antibody, heavy chain T65G, G66D / light chain M32L, M50D, N52S, M88Q (antibody, human IgG1, V domains shown, Human IgG1) VH: EVQLVESGGGLVQPGGSLRLSCAASGFTFSPFAMSWVRQAPGKGLEWVAKISPGGSWTYYSDTVGDRFTFSLDTSKSTAYLQMNSLRAEDTAVYYCARQLWGYYALDIWGQGTLVTVSS VL: DIQLTQSPSSLSASVGDRVTITCSASISVSYLYWYQQKPGKAPKLLIYDDSSLASGVPSRFSGSGSGTDFTLTISSLQPEDFATYYCQQWSGYPYTFGQGTKVEIK | 0.311 nM | 0.000477 s⁻¹ | 1.53e+06 M⁻¹ s⁻¹
3 | anti-IL-6 antibody, heavy chain T65S, G66D / light chain M32L, M50D, N52S, M88Q (antibody, human IgG1, V domains shown, Human IgG1) VH: EVQLVESGGGLVQPGGSLRLSCAASGFTFSPFAMSWVRQAPGKGLEWVAKISPGGSWTYYSDTVSDRFTFSLDTSKSTAYLQMNSLRAEDTAVYYCARQLWGYYALDIWGQGTLVTVSS VL: DIQLTQSPSSLSASVGDRVTITCSASISVSYLYWYQQKPGKAPKLLIYDDSSLASGVPSRFSGSGSGTDFTLTISSLQPEDFATYYCQQWSGYPYTFGQGTKVEIK | 0.31 nM | 0.000441 s⁻¹ | 1.42e+06 M⁻¹ s⁻¹
4 | anti-IL-6 antibody, heavy chain T63W, G66D / light chain M32L, M50D, N52S, M88Q (antibody, human IgG1, V domains shown, Human IgG1) VH: EVQLVESGGGLVQPGGSLRLSCAASGFTFSPFAMSWVRQAPGKGLEWVAKISPGGSWTYYSDWVTDRFTFSLDTSKSTAYLQMNSLRAEDTAVYYCARQLWGYYALDIWGQGTLVTVSS VL: DIQLTQSPSSLSASVGDRVTITCSASISVSYLYWYQQKPGKAPKLLIYDDSSLASGVPSRFSGSGSGTDFTLTISSLQPEDFATYYCQQWSGYPYTFGQGTKVEIK | 0.286 nM | 0.000449 s⁻¹ | 1.57e+06 M⁻¹ s⁻¹
5 | anti-IL-6 antibody, heavy chain T65L, G66D / light chain M32L, M50D, N52S, M88Q (antibody, human IgG1, V domains shown, Human IgG1) VH: EVQLVESGGGLVQPGGSLRLSCAASGFTFSPFAMSWVRQAPGKGLEWVAKISPGGSWTYYSDTVLDRFTFSLDTSKSTAYLQMNSLRAEDTAVYYCARQLWGYYALDIWGQGTLVTVSS VL: DIQLTQSPSSLSASVGDRVTITCSASISVSYLYWYQQKPGKAPKLLIYDDSSLASGVPSRFSGSGSGTDFTLTISSLQPEDFATYYCQQWSGYPYTFGQGTKVEIK | 0.293 nM | 0.000446 s⁻¹ | 1.53e+06 M⁻¹ s⁻¹
6 | anti-IL-6 antibody, heavy chain T65H, G66D / light chain M32L, M50D, N52S, M88Q (antibody, human IgG1, V domains shown, Human IgG1) VH: EVQLVESGGGLVQPGGSLRLSCAASGFTFSPFAMSWVRQAPGKGLEWVAKISPGGSWTYYSDTVHDRFTFSLDTSKSTAYLQMNSLRAEDTAVYYCARQLWGYYALDIWGQGTLVTVSS VL: DIQLTQSPSSLSASVGDRVTITCSASISVSYLYWYQQKPGKAPKLLIYDDSSLASGVPSRFSGSGSGTDFTLTISSLQPEDFATYYCQQWSGYPYTFGQGTKVEIK | 0.297 nM | 0.000423 s⁻¹ | 1.43e+06 M⁻¹ s⁻¹
7 | anti-IL-6 antibody, heavy chain T65F, G66D / light chain M32L, M50D, N52S, M88Q (antibody, human IgG1, V domains shown, Human IgG1) VH: EVQLVESGGGLVQPGGSLRLSCAASGFTFSPFAMSWVRQAPGKGLEWVAKISPGGSWTYYSDTVFDRFTFSLDTSKSTAYLQMNSLRAEDTAVYYCARQLWGYYALDIWGQGTLVTVSS VL: DIQLTQSPSSLSASVGDRVTITCSASISVSYLYWYQQKPGKAPKLLIYDDSSLASGVPSRFSGSGSGTDFTLTISSLQPEDFATYYCQQWSGYPYTFGQGTKVEIK | 0.291 nM | 0.000391 s⁻¹ | 1.34e+06 M⁻¹ s⁻¹
8 | anti-IL-6 antibody, heavy chain T65D, G66D / light chain M32L, M50D, N52S, M88Q (antibody, human IgG1, V domains shown, Human IgG1) VH: EVQLVESGGGLVQPGGSLRLSCAASGFTFSPFAMSWVRQAPGKGLEWVAKISPGGSWTYYSDTVDDRFTFSLDTSKSTAYLQMNSLRAEDTAVYYCARQLWGYYALDIWGQGTLVTVSS VL: DIQLTQSPSSLSASVGDRVTITCSASISVSYLYWYQQKPGKAPKLLIYDDSSLASGVPSRFSGSGSGTDFTLTISSLQPEDFATYYCQQWSGYPYTFGQGTKVEIK | 0.465 nM | 0.00048 s⁻¹ | 1.03e+06 M⁻¹ s⁻¹
9 | anti-IL-6 antibody, heavy chain T65P, G66D / light chain M32L, M50D, N52S, M88Q (antibody, human IgG1, V domains shown, Human IgG1) VH: EVQLVESGGGLVQPGGSLRLSCAASGFTFSPFAMSWVRQAPGKGLEWVAKISPGGSWTYYSDTVPDRFTFSLDTSKSTAYLQMNSLRAEDTAVYYCARQLWGYYALDIWGQGTLVTVSS VL: DIQLTQSPSSLSASVGDRVTITCSASISVSYLYWYQQKPGKAPKLLIYDDSSLASGVPSRFSGSGSGTDFTLTISSLQPEDFATYYCQQWSGYPYTFGQGTKVEIK | 0.601 nM | 0.00108 s⁻¹ | 1.79e+06 M⁻¹ s⁻¹
10 | anti-IL-6 antibody, heavy chain T65K, G66D / light chain M32L, M50D, N52S, M88Q (antibody, human IgG1, V domains shown, Human IgG1) VH: EVQLVESGGGLVQPGGSLRLSCAASGFTFSPFAMSWVRQAPGKGLEWVAKISPGGSWTYYSDTVKDRFTFSLDTSKSTAYLQMNSLRAEDTAVYYCARQLWGYYALDIWGQGTLVTVSS VL: DIQLTQSPSSLSASVGDRVTITCSASISVSYLYWYQQKPGKAPKLLIYDDSSLASGVPSRFSGSGSGTDFTLTISSLQPEDFATYYCQQWSGYPYTFGQGTKVEIK | 0.356 nM | 0.000579 s⁻¹ | 1.63e+06 M⁻¹ s⁻¹
11 | anti-IL-6 antibody, heavy chain T65R, G66D / light chain M32L, M50D, N52S, M88Q (antibody, human IgG1, V domains shown, Human IgG1) VH: EVQLVESGGGLVQPGGSLRLSCAASGFTFSPFAMSWVRQAPGKGLEWVAKISPGGSWTYYSDTVRDRFTFSLDTSKSTAYLQMNSLRAEDTAVYYCARQLWGYYALDIWGQGTLVTVSS VL: DIQLTQSPSSLSASVGDRVTITCSASISVSYLYWYQQKPGKAPKLLIYDDSSLASGVPSRFSGSGSGTDFTLTISSLQPEDFATYYCQQWSGYPYTFGQGTKVEIK | 0.327 nM | 0.000532 s⁻¹ | 1.63e+06 M⁻¹ s⁻¹
12 | anti-IL-6 antibody, heavy chain T65V, G66D / light chain M32L, M50D, N52S, M88Q (antibody, human IgG1, V domains shown, Human IgG1) VH: EVQLVESGGGLVQPGGSLRLSCAASGFTFSPFAMSWVRQAPGKGLEWVAKISPGGSWTYYSDTVVDRFTFSLDTSKSTAYLQMNSLRAEDTAVYYCARQLWGYYALDIWGQGTLVTVSS VL: DIQLTQSPSSLSASVGDRVTITCSASISVSYLYWYQQKPGKAPKLLIYDDSSLASGVPSRFSGSGSGTDFTLTISSLQPEDFATYYCQQWSGYPYTFGQGTKVEIK | 0.281 nM | 0.000551 s⁻¹ | 1.96e+06 M⁻¹ s⁻¹

Further binders by falling Kd, results first:

Row | Kd | koff | kon | Binder
13 | 0.279 nM | 0.000474 s⁻¹ | 1.7e+06 M⁻¹ s⁻¹ | anti-IL-6 antibody, heavy chain T65E, G66D / light chain M32L, M50D, N52S, M88Q (antibody, human IgG1, V domains shown, Human IgG1) VH: EVQLVESGGGLVQPGGSLRLSCAASGFTFSPFAMSWVRQAPGKGLEWVAKISPGGSWTYYSDTVEDRFTFSLDTSKSTAYLQMNSLRAEDTAVYYCARQLWGYYALDIWGQGTLVTVSS VL: DIQLTQSPSSLSASVGDRVTITCSASISVSYLYWYQQKPGKAPKLLIYDDSSLASGVPSRFSGSGSGTDFTLTISSLQPEDFATYYCQQWSGYPYTFGQGTKVEIK
14 | 0.278 nM | 0.000499 s⁻¹ | 1.8e+06 M⁻¹ s⁻¹ | anti-IL-6 antibody, heavy chain T63S, G66D / light chain M32L, M50D, N52S, M88Q (antibody, human IgG1, V domains shown, Human IgG1) VH: EVQLVESGGGLVQPGGSLRLSCAASGFTFSPFAMSWVRQAPGKGLEWVAKISPGGSWTYYSDSVTDRFTFSLDTSKSTAYLQMNSLRAEDTAVYYCARQLWGYYALDIWGQGTLVTVSS VL: DIQLTQSPSSLSASVGDRVTITCSASISVSYLYWYQQKPGKAPKLLIYDDSSLASGVPSRFSGSGSGTDFTLTISSLQPEDFATYYCQQWSGYPYTFGQGTKVEIK
15 | 0.274 nM | 0.00043 s⁻¹ | 1.57e+06 M⁻¹ s⁻¹ | anti-IL-6 antibody, heavy chain T63V, G66D / light chain M32L, M50D, N52S, M88Q (antibody, human IgG1, V domains shown, Human IgG1) VH: EVQLVESGGGLVQPGGSLRLSCAASGFTFSPFAMSWVRQAPGKGLEWVAKISPGGSWTYYSDVVTDRFTFSLDTSKSTAYLQMNSLRAEDTAVYYCARQLWGYYALDIWGQGTLVTVSS VL: DIQLTQSPSSLSASVGDRVTITCSASISVSYLYWYQQKPGKAPKLLIYDDSSLASGVPSRFSGSGSGTDFTLTISSLQPEDFATYYCQQWSGYPYTFGQGTKVEIK
16 | 0.273 nM | 0.000526 s⁻¹ | 1.92e+06 M⁻¹ s⁻¹ | anti-IL-6 antibody, heavy chain T63R, G66D / light chain M32L, M50D, N52S, M88Q (antibody, human IgG1, V domains shown, Human IgG1) VH: EVQLVESGGGLVQPGGSLRLSCAASGFTFSPFAMSWVRQAPGKGLEWVAKISPGGSWTYYSDRVTDRFTFSLDTSKSTAYLQMNSLRAEDTAVYYCARQLWGYYALDIWGQGTLVTVSS VL: DIQLTQSPSSLSASVGDRVTITCSASISVSYLYWYQQKPGKAPKLLIYDDSSLASGVPSRFSGSGSGTDFTLTISSLQPEDFATYYCQQWSGYPYTFGQGTKVEIK
17 | 0.246 nM | 0.000419 s⁻¹ | 1.7e+06 M⁻¹ s⁻¹ | anti-IL-6 antibody, heavy chain T63P, G66D / light chain M32L, M50D, N52S, M88Q (antibody, human IgG1, V domains shown, Human IgG1) VH: EVQLVESGGGLVQPGGSLRLSCAASGFTFSPFAMSWVRQAPGKGLEWVAKISPGGSWTYYSDPVTDRFTFSLDTSKSTAYLQMNSLRAEDTAVYYCARQLWGYYALDIWGQGTLVTVSS VL: DIQLTQSPSSLSASVGDRVTITCSASISVSYLYWYQQKPGKAPKLLIYDDSSLASGVPSRFSGSGSGTDFTLTISSLQPEDFATYYCQQWSGYPYTFGQGTKVEIK
18 | 0.241 nM | 0.000459 s⁻¹ | 1.91e+06 M⁻¹ s⁻¹ | anti-IL-6 antibody, heavy chain T63Y, G66D / light chain M32L, M50D, N52S, M88Q (antibody, human IgG1, V domains shown, Human IgG1) VH: EVQLVESGGGLVQPGGSLRLSCAASGFTFSPFAMSWVRQAPGKGLEWVAKISPGGSWTYYSDYVTDRFTFSLDTSKSTAYLQMNSLRAEDTAVYYCARQLWGYYALDIWGQGTLVTVSS VL: DIQLTQSPSSLSASVGDRVTITCSASISVSYLYWYQQKPGKAPKLLIYDDSSLASGVPSRFSGSGSGTDFTLTISSLQPEDFATYYCQQWSGYPYTFGQGTKVEIK
19 | 0.239 nM | 0.000542 s⁻¹ | 2.27e+06 M⁻¹ s⁻¹ | anti-IL-6 antibody, heavy chain T65A, G66D / light chain M32L, M50D, N52S, M88Q (antibody, human IgG1, V domains shown, Human IgG1) VH: EVQLVESGGGLVQPGGSLRLSCAASGFTFSPFAMSWVRQAPGKGLEWVAKISPGGSWTYYSDTVADRFTFSLDTSKSTAYLQMNSLRAEDTAVYYCARQLWGYYALDIWGQGTLVTVSS VL: DIQLTQSPSSLSASVGDRVTITCSASISVSYLYWYQQKPGKAPKLLIYDDSSLASGVPSRFSGSGSGTDFTLTISSLQPEDFATYYCQQWSGYPYTFGQGTKVEIK
